± gives the standard deviation of the averaged measurements.
What was measured:
hTERT-HMEC = assay: percentage of EdU-negative (G0-arrested) nuclei per well, 72 h; higher = more G0 arrest; conditions: reference: sequence is the full UniProt precursor, the tested protein was the secreted form or ectodomain
MCF7 = assay: as above; conditions: reference: sequence is the full UniProt precursor, the tested protein was the secreted form or ectodomain
[1] = protein concentration 0.0185 µM
[2] = protein concentration 0.03125 µM
[3] = protein concentration 0.3125 µM
[4] = protein concentration 0.0225 µM
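Further: secreted proteins added to cultured cells, EdU pulse at the end, nuclei found by Hoechst imaging, EdU status from nuclear versus surrounding ring intensity ratio, PBS as neutral control.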

MVTSSFPISVAVFALITLQVGTQDSFIAAVYEHAVILPNKTETPVSQEDALNLMNENIDILETAIKQAAEQGARIIVTPEDALYGWKFTRETVFPYLEDIPDPQVNWIPCQDPHRFGHTPVQARLSCLAKDNSIYVLANLGDKKPCNSRDSTCPPNGYFQYNTNVVYNTEGKLVARYHKYHLYSEPQFNVPEKPELVTFNTAFGRFGIFTCFDIFFYDPGVTLVKDFHVDTILFPTAWMNVLPLLTAIEFHSAWAMGMGVNLLVANTHHVSLNMTGSGIYAPNGPKVYHYDMKTELGKLLLSEVDSHPLSSLAYPTAVNWNAYATTIKPFPVQKNTFRGFISRDGFNFTELFENAGNLTVCQKELCCHLSYRMLQKEENEVYVLGAFTGLHGRRRREYWQVCTLLKCKTTNLTTCGRPVETASTRFEMFSLSGTFGTEYVFPEVLLTEIHLSPGKFEVLKDGRLVNKNGSSGPILTVSLFGRWYTKDSLYSSCGTSNSAITYLLIFILLMIIALQNIVML
percentage of EdU-negative (hTERT-HMEC; [1]): 3.63 ± 0.35%
percentage of EdU-negative (hTERT-HMEC; protein concentration 0.185 µM): 6.84 ± 0.58%
percentage of EdU-negative (MCF7; [1]): 25.8 ± 0.6%
percentage of EdU-negative (MCF7; protein concentration 0.185 µM): 28.11 ± 0.25%

MVWKVAVFLSVALGIGAVPIDDPEDGGKHWVVIVAGSNGWYNYRHQADACHAYQIIHRNGIPDEQIVVMMYDDIAYSEDNPTPGIVINRPNGTDVYQGVPKDYTGEDVTPQNFLAVLRGDAEAVKGIGSGKVLKSGPQDHVFIYFTDHGSTGILVFPNEDLHVKDLNETIHYMYKHKMYRKMVFYIEACESGSMMNHLPDNINVYATTAANPRESSYACYYDEKRSTYLGDWYSVNWMEDSDVEDLTKETLHKQYHLVKSHTNTSHVMQYGNKTISTMKVMQFQGMKRKASSPVPLPPVTHLDLTPSPDVPLTIMKRKLMNTNDLEESRQLTEEIQRHLDARHLIEKSVRKIVSLLAASEAEVEQLLSERAPLTGHSCYPEALLHFRTHCFNWHSPTYEYALRHLYVLVNLCEKPYPLHRIKLSMDHVCLGHY
percentage of EdU-negative (hTERT-HMEC; [2]): 5.13 ± 0.28%
percentage of EdU-negative (hTERT-HMEC; [3]): 5.28 ± 0.11%
percentage of EdU-negative (MCF7; [2]): 26.412 ± 0.015%
percentage of EdU-negative (MCF7; [3]): 26 ± 1.2%

MVWKWMPLLLLLVCVATMCSAQDRTDLLNVCMDAKHHKTKPGPEDKLHDQCSPWKKNACCTASTSQELHKDTSRLYNFNWDHCGKMEPACKRHFIQDTCLYECSPNLGPWIQQVNQSWRKERFLDVPLCKEDCQRWWEDCHTSHTCKSNWHRGWDWTSGVNKCPAGALCRTFESYFPTPAALCEGLWSHSYKVSNYSRGSGRCIQMWFDSAQGNPNEEVARFYAAAMHVNAGEMLHGTGGLLLSLALMLQLWLLG
percentage of EdU-negative (hTERT-HMEC; [4]): 4.38 ± 0.49%
percentage of EdU-negative (hTERT-HMEC; protein concentration 0.225 µM): 5.92 ± 0.29%
percentage of EdU-negative (MCF7; [4]): 28.59 ± 0.11%
percentage of EdU-negative (MCF7; protein concentration 0.225 µM): 27.6 ± 2.5%

Reference: the supplement of paper PMC11316812
